{"source": "patent US20140363441A1", "about": "(priority 2013, published 2014)", "target": "M2 protein of influenza A/Puerto Rico/8/34 (H1N1) on the surface of infected MDCK cells or transfected cells (influenza A virus H1N1 A/Puerto Rico/8/34) (UniProt P06821)", "sequence (P06821 whole entry)": "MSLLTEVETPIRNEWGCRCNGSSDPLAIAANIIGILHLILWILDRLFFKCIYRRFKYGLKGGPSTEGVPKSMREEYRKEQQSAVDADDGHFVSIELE", "assay": "flow cytometry, PR8-infected MDCK cells"}
{"substance": "chimeric mouse V-region/human IgG1 kappa 14C2 antibody", "values": [{"measurement": "EC50 (read off the curve)", "value": 0.3, "unit": "µg/mL"}]}
